Drawing on paper PMC11167044, this text covers stoichiometry N for one substance.

In this assay the target is PKM2 in SW480 cells (human (endogenous in SW480)) (UniProt P14618). Nature of the assay: cross-linking; PKM2 cross-linked in SW480 cells expressing MYG1 variants, following ref. 37; SDS-PAGE and western blot. For orientation: Immunoblotting shows a protein as a band on a membrane.

Sequence of PKM2 in SW480 cells, P14618 1-531 (enzyme; other documents disagree on this pair) (P14618 whole entry): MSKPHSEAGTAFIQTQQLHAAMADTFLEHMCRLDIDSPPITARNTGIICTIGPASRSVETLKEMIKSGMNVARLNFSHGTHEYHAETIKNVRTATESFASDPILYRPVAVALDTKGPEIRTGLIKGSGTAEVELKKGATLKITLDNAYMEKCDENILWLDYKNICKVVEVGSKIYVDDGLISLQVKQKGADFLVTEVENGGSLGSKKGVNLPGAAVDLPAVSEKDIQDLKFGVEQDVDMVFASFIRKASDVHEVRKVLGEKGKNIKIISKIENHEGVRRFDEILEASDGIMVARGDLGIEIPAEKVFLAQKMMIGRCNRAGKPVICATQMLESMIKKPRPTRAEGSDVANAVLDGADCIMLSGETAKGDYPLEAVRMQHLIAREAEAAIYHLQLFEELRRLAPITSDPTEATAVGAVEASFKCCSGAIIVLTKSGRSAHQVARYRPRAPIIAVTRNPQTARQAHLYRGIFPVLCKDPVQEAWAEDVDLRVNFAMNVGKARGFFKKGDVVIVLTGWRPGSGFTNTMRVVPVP

Regarding “PKM2 in SW480 cells, P14618 1-531 (enzyme; other documents disagree on this pair)”, the stoichiometry N (usually the number of molecules, sites or subunits per partner or assembly) was 2.
